Experimental data taken from article PMC10201424, “Biochemical characterisation of Mer3 helicase interactions and the protection of meiotic recombination intermediates” (Nucleic Acids Research, 2022).
Values joined by “and” are separate entries in the source; they are usually repeats but may differ in a detail not shown here. Equal values may be shown once.

T1: Mer3-Strep (full-length S. cerevisiae Mer3 with C-terminal 2xStrep-II tag) (S. cerevisiae, UniProt P51979 1-1187, phosphorylated in insect cells; high-confidence sites S17, S80, T100, S398, S958, T1092)
T1 sequence (looked up): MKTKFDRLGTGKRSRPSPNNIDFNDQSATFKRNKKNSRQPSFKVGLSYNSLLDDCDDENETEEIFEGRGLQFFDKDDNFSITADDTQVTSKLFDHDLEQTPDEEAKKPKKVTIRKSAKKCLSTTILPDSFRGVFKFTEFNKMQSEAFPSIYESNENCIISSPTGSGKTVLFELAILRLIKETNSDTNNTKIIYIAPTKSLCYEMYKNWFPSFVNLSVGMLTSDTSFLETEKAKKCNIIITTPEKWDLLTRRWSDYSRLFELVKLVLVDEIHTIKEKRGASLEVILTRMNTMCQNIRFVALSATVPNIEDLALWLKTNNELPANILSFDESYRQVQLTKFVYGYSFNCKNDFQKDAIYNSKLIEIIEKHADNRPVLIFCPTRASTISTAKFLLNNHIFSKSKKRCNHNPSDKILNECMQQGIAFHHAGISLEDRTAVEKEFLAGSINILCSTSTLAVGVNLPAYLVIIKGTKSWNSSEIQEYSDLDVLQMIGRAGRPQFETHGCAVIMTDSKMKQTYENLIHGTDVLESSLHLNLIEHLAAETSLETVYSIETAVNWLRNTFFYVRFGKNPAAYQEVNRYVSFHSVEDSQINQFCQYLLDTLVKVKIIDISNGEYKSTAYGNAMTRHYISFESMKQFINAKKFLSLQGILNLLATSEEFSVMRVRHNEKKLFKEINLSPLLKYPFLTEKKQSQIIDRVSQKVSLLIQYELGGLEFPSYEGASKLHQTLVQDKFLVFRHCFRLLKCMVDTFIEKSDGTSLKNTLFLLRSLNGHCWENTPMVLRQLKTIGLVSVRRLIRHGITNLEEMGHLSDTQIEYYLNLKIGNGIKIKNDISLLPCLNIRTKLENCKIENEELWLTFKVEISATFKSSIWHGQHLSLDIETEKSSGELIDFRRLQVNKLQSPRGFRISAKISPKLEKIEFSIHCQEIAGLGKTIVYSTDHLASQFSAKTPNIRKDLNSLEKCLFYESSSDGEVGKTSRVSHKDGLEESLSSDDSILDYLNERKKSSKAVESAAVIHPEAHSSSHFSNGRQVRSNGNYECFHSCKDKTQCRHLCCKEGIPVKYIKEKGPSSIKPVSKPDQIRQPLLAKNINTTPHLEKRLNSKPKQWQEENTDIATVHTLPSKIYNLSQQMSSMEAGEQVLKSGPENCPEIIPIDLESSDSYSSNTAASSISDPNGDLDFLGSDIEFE

B1: MBP-Mlh2 (chain of the MBP-Mlh1/MBP-Mlh2 complex) (natural protein, S. cerevisiae, UniProt Q07980 1-695, looked up)
chain: MTIHQLSPESQWKIVSSSFIYGPVAAVRELLDNSIDSGAKKVFIDVDSTTGGCEYISVKDDGSGVDIIDRPSMCLEYTTSKMSSLGDISILTTLGFRGEALFLLSNLCNQKGSMQVETKTADDVIGEKWLVDSKGGITNGKRYKVSCPVGTTVILRKLLGGLRARYLEISSRPRKTFDELIYLINHYSLIHRNIRFYFSLVSLQKNGAIERKQMQETLDPKISRARSLSLLARLKKPVPLNFIVEENFVIDEKINLDLILPRMVPESDVINIKRRFKFLSVNERALSLNLETGKTISKLLSSIYRDFSLLDPMVWFINLNCDTKLLDVNIEPEKNDVMIKSFEVIFKKIENKLKLLLEERIGIETNMLGDKHVQPSINEKTSPALVIPTPDAENEISKGCGAVSGKDKTDIPQKNSDLIVPTFYDEANLENTTIVAATPSPTKFSEDKALDEQTQLTISSYRSSSSGSMASEDSTNWRHNFQQELSENSEVAGAGSSTLPSSLTYNYIETIPENEDLELSKDASISNPFMITKIRNVNKKLSENLLEAKRTSCGDANKRGMPNERQLSNTEKKELIKLQQTYGKRNNTVDMTIPRNSKKKVTDNYIKKASCMHKTRPKLMHFSEYTNNYVYTLKNEKIVKHDSDNFAKETLWLRSRDDATSPSSSLLQALRAHVKKPGHIEATTNEWCLFTPDSP
notes: Mlh2, S. cerevisiae, from SK1 strain genomic DNA; Same chain as in m6; source: Hi5 insect cells (co-expressed with MBP-Mlh1), purified (MBP-trap, heparin, SEC); not shown: His6, N-terminal, kept; MBP, N-terminal, kept
B2: His-Top3 (enzyme, S. cerevisiae, UniProt P13099 1-656, looked up)
chain: MKVLCVAEKNSIAKAVSQILGGGRSTSRDSGYMYVKNYDFMFSGFPFARNGANCEVTMTSVAGHLTGIDFSHDSHGWGKCAIQELFDAPLNEIMNNNQKKIASNIKREARNADYLMIWTDCDREGEYIGWEIWQEAKRGNRLIQNDQVYRAVFSHLERQHILNAARNPSRLDMKSVHAVGTRIEIDLRAGVTFTRLLTETLRNKLRNQATMTKDGAKHRGGNKNDSQVVSYGTCQFPTLGFVVDRFERIRNFVPEEFWYIQLVVENKDNGGTTTFQWDRGHLFDRLSVLTFYETCIETAGNVAQVVDLKSKPTTKYRPLPLTTVELQKNCARYLRLNAKQSLDAAEKLYQKGFISYPRTETDTFPHAMDLKSLVEKQAQLDQLAAGGRTAWASYAASLLQPENTSNNNKFKFPRSGSHDDKAHPPIHPIVSLGPEANVSPVERRVYEYVARHFLACCSEDAKGQSMTLVLDWAVERFSASGLVVLERNFLDVYPWARWETTKQLPRLEMNALVDIAKAEMKAGTTAPPKPMTESELILLMDTNGIGTDATIAEHIDKIQVRNYVRSEKVGKETYLQPTTLGVSLVHGFEAIGLEDSFAKPFQRREMEQDLKKICEGHASKTDVVKDIVEKYRKYWHKTNACKNTLLQVYDRVKASM
notes: Top3 (type IA topoisomerase), S. cerevisiae, from SK1 strain genomic DNA; also called His-tagged Top3; source: Hi5 insect cells, purified (TALON, heparin, ResourceS, SEC); not shown: His6, N-terminal, kept
B3: Top3/Rmi1 complex (as used in MST and XL-MS) (complex, S. cerevisiae)
chain 1: B2 chain
chain 2: MSFSSILSQDITDDITPPAYSATLGSREQIVFRAYQNEPWLAGTASNLILDKKLVIVDRELLFQVLMVENITKSKLTQIDDIKTKLDPKKQKVDRLRSGAQGNGAKKYEVITQVDMEDDGNVADNNCAKENNSNNNSSAAKNKAVFKLTLQSKSGDVFFAINSTPISWSSCMLGSKIVILPGTVFNRGVFILKDSQVIFLGGINRVWNENRDQKFCDYLESKLQRDKQLVNGGSKKRKAND
notes: Top3 (type IA topoisomerase), S. cerevisiae, from SK1 strain genomic DNA; untagged; Rmi1, S. cerevisiae, from SK1 strain genomic DNA; The methods describe a GST-tagged and an untagged (3C protease cleaved) preparation; source: Hi5 insect cells (co-expressed from pBIG1a), purified
B4: Top3, untagged (chain of the Top3/Rmi1 complex) (enzyme, S. cerevisiae, UniProt P13099 1-656, looked up)
chain: B2 chain
notes: Top3 (type IA topoisomerase), S. cerevisiae, from SK1 strain genomic DNA; untagged; Same chain as in m10 and m11; source: Hi5 insect cells (co-expressed with GST-Rmi1), purified with Rmi1
B5: Rmi1 (as used in MST and XL-MS) (natural protein, S. cerevisiae, UniProt Q02685 1-241, looked up)
chain: B3 chain 2
notes: Rmi1, S. cerevisiae, from SK1 strain genomic DNA; The methods describe GST-Rmi1 and untagged (3C protease cleaved) Rmi1; also called Rmi1 alone; source: Hi5 insect cells, purified

Legend:
[1] = target: Mer3-Strep (full-length S. cerevisiae Mer3 with C-terminal 2xStrep-II tag) (S. cerevisiae) (UniProt P51979); assay: SEC-MALS; full-length Mer3, 10 μM at injection, Superose 6 5/150; 30 mM HEPES pH 6.8, 300 mM NaCl, 1 mM MgCl2, 5 μM ZnCl2, 1 mM TCEP
[2] = target: T1, Mer3-Strep (full-length S. cerevisiae …); assay: cross-linking; XL-MS with DSBU, proteins 3 μM, 1 h at 25°C; 30 mM HEPES 6.8, 150 mM NaCl, 5% glycerol, 1 mM MgCl2, 1 mM TCEP; samples: Mer3, Mlh1/Mlh2, Mer3/Mlh1/Mlh2, Top3/Rmi1, Mer3/Top3/Rmi1; details: both partners purified
[3] = target: T1, Mer3-Strep (full-length S. cerevisiae …); assay: pull-down; Mer3-Strep (0.7 μM) held by anti-Strep antibody and protein G beads (the legend says StrepTactin pulldown), His-Top3 1.3 μM; 25 mM HEPES pH 7.5, 5% glycerol, 50 mM NaCl, 1 mM TCEP, 0.1% Tween-20; western blot; details: both partners purified
[4] = target: T1, Mer3-Strep (full-length S. cerevisiae …); assay: MST; 45 nM RED-NHS labelled Mer3, partner titrated; 50 mM Tris–HCl pH 7.4, 150 mM NaCl, 10 mM MgCl2, 0.05% Tween-20; 25°C; triplicates; details: both partners purified
[5] = target: B4; assay: cross-linking; XL-MS with DSBU, proteins 3 μM, 1 h at 25°C; 30 mM HEPES 6.8, 150 mM NaCl, 5% glycerol, 1 mM MgCl2, 1 mM TCEP; samples: Mer3, Mlh1/Mlh2, Mer3/Mlh1/Mlh2, Top3/Rmi1, Mer3/Top3/Rmi1; details: both partners purified

binding result [2] | Kd [4] | Molecule | further results
– | – | Mer3-Strep (full-length S. cerevisiae Mer3 with C-terminal 2xStrep-II tag) (from UniProt P51979 1-1187) (enzyme) | stoichiometry N [1]: 2
binds | – | B1 | –
– | – | B2 | binding result [3]: binds
– | 0.844 ± 0.148 µM | B3 | –
binds | – | B4 | –
– | 1.99 µM and 1.98 µM | B5 | binding result [5]: binds
